Measurements reported in patent publication US20230279151A1 (Sanofi, published 2023).

How the values were obtained:
[1] = target: T1, human IL4 (IL004, Millipore) (human, UniProt P05112 25-153); assay: SPR, Biacore 3000, antibody captured by anti-human Fc, IL4 as analyte; HEK293-FS, co-expressed with hFurin (SEQ ID NO 37)
T1 construct: Commercial recombinant antigen; also called Antigen IL4
T1 sequence (looked up): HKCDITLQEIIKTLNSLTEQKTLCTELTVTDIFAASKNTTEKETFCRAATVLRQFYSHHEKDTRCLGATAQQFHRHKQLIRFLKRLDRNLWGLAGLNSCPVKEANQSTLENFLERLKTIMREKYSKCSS
Experimental: (§1) Binding of antigens to the antibody constructs was measured using surface plasmon resonance (SPR) with a BlAcore 3000 instrument (GE Healthcare) with HBS-EP buffer (GE Healthcare). As antigens, human IL4 (IL004, Millipore) and human IL13 (IL012, Millipore) were used. The antihuman Fc capture antibody (human antibody capture kit, GE Life Sciences) was immobilized via primary amine groups (11000 RU) on a research grade CM5 chip (GE Life Sciences) using standard procedures. […] The tested antibody constructs were […] and injected at 100 nM concentration for 240 sec with a dissociation time of 300 sec at a flow rate of 30 µL/min. For human IL4 and IL13, a dilution series of 0.1 nM to 3 nM and 0.8 nM to 25 nM, respectively were used. Chip surfaces were regenerated with 2 min injects of the regeneration buffer provided with the capture kit. Sensorgrams were double-referenced with a blank chip surface and HBS-EP buffer blanks. Data analysis was performed using the BIAevaluation software v4.1.
(§2) The binding of the different bispecific Tandem-IgG constructs expressed in HEK293-FS or ExpiCHO cells as well as in vivo processed Tandem-IgG from the co-transfection with Furin variants was measured via surface plasmon resonance (SPR). The binding to the two human antigens IL4 and IL13 were compared to the binding characteristics of the individual monoclonal antibodies. […] In contrast, specific binding to IL13 was only detectable for in vivo processed Tandem-IgGs as well as the Tandem-lgG control comprising two LCs. […] Thus, processing of the linker sequence connecting the VLb (VL against IL13) at the inner position of the Tandem-lgG with the CK domain of the IL4 binding Fab at the outer position is required for a functional IL13 binding site. In vivo processing can thereby be mediated via endogenously expressed proteases or via co-transfected Furin variants.

[2] = target: T1, human IL4 (IL004, Millipore); assay: SPR, Biacore 3000, antibody captured by anti-human Fc, IL4 as analyte; HEK293-FS, co-expressed with hFurin-KDEL (SEQ ID NO 38)
Experimental: as §1, §2

[3] = target: T1, human IL4 (IL004, Millipore); assay: SPR, Biacore 3000, antibody captured by anti-human Fc, IL4 as analyte; HEK293-FS expression
Experimental: as §1, §2

[4] = target: T1, human IL4 (IL004, Millipore); assay: SPR, Biacore 3000, antibody captured by anti-human Fc, IL4 as analyte; HEK293-FS expression, processed in vivo
Experimental: as §1, §2

[5] = target: T1, human IL4 (IL004, Millipore); assay: SPR, Biacore 3000, antibody captured by anti-human Fc, IL4 as analyte; second block of the table (presumably ExpiCHO expression), processed in vivo
Experimental: as §1, §2

B1: sLC-Tandem-(anti-IL4xanti-IL13)-His8-PCL1-huIgG1 (bispecific antibody)
light: DIQMTQSPASLSVSVGDTITLTCHASQNIDVWLSWFQQKPGNIPKLLIYKASNLHTGVPSRFSGSGSGTGFTLTISSLQPEDIATYYCQQAHSYPFTFGGGTKLEIKRTVAAPSVFIFPPSDEQLKSGTASVVCLLNNFYPREAKVQWKVDNALQSGNSQESVTEQDSKDSTYSLSSTLTLSKADYEKHKVYACEVTHQGLSSPVTKSFNRGECRRKR
chain: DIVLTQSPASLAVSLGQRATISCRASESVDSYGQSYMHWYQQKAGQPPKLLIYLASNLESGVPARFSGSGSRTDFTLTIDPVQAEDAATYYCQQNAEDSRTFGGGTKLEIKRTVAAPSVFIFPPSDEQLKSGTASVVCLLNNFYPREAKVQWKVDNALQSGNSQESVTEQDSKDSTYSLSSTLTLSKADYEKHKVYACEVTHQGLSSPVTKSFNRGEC
heavy: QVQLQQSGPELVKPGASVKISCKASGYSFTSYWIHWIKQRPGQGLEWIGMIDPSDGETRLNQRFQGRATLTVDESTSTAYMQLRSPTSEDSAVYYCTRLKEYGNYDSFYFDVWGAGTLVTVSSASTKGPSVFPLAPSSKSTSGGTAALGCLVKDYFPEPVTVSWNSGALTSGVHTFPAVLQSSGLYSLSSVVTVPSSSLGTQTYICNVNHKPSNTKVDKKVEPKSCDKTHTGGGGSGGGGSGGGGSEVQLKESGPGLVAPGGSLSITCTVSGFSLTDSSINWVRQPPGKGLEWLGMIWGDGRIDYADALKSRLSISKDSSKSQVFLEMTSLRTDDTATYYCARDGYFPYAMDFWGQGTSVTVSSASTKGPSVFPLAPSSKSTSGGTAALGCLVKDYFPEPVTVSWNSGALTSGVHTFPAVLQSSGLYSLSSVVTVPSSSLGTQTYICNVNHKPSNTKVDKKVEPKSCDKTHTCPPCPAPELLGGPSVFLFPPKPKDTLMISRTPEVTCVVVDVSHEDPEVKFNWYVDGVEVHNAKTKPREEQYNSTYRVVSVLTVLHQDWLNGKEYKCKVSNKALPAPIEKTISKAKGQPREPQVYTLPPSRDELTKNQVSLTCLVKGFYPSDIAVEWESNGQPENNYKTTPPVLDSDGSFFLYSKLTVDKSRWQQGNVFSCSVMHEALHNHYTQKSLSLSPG
notes: In both the single light chain was processed in vivo; also called 17, 13 with 37; 17, 13 with 38
With B1 the Kd [1] was 1.53 pM, the koff [1] was 0.000211 s⁻¹ and the kon [1] was 1.38e+08 M⁻¹ s⁻¹. The Kd [2] was 1.86 pM, the koff [2] was 0.000299 s⁻¹ and the kon [2] was 1.61e+08 M⁻¹ s⁻¹.

B2: Tandem-(anti-IL4xanti-IL13)-huIgG1 (bispecific antibody)
light 1: DIQMTQSPASLSVSVGDTITLTCHASQNIDVWLSWFQQKPGNIPKLLIYKASNLHTGVPSRFSGSGSGTGFTLTISSLQPEDIATYYCQQAHSYPFTFGGGTKLEIKRTVAAPSVFIFPPSDEQLKSGTASVVCLLNNFYPREAKVQWKVDNALQSGNSQESVTEQDSKDSTYSLSSTLTLSKADYEKHKVYACEVTHQGLSSPVTKSFNRGEC
light 2: not shown
heavy: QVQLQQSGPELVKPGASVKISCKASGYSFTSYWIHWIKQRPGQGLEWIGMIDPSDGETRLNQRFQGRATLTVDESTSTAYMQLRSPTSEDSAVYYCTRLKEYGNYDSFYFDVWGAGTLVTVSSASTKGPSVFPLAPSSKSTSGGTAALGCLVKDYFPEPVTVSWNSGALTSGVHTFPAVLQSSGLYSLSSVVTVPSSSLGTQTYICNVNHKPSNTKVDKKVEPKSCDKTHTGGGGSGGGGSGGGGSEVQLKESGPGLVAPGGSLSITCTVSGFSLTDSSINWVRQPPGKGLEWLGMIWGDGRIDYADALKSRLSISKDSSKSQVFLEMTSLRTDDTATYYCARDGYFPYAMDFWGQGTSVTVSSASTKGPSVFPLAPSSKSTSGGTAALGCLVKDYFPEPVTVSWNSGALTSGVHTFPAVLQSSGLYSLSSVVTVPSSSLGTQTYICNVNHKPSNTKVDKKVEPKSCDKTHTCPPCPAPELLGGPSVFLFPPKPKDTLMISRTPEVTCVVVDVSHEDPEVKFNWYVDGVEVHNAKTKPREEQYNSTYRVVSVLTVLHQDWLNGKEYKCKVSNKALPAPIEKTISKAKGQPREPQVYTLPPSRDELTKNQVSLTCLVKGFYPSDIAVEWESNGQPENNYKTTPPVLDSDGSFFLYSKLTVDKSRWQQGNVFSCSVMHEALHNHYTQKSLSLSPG
notes: Control with the two light chains expressed as separate chains; also called Tandem-IgG control; control Tandem-IgG
B2 was tested, and the Kd [3] was 2.32 pM, the koff [3] was 0.000149 s⁻¹ and the kon [3] was 6.39e+07 M⁻¹ s⁻¹.

B3: sLC-Tandem-(anti-IL4xanti-IL13)-PCL2-huIgG1 (bispecific antibody)
light: DIQMTQSPASLSVSVGDTITLTCHASQNIDVWLSWFQQKPGNIPKLLIYKASNLHTGVPSRFSGSGSGTGFTLTISSLQPEDIATYYCQQAHSYPFTFGGGTKLEIKRTVAAPSVFIFPPSDEQLKSGTASVVCLLNNFYPREAKVQWKVDNALQSGNSQESVTEQDSKDSTYSLSSTLTLSKADYEKHKVYACEVTHQGLSSPVTKSFNRGECHRRRKR
chain: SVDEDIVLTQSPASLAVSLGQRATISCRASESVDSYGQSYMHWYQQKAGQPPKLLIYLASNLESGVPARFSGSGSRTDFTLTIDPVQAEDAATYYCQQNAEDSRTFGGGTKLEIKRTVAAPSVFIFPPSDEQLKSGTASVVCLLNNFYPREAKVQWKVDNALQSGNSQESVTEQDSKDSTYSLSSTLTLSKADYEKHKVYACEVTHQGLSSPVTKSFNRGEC
heavy: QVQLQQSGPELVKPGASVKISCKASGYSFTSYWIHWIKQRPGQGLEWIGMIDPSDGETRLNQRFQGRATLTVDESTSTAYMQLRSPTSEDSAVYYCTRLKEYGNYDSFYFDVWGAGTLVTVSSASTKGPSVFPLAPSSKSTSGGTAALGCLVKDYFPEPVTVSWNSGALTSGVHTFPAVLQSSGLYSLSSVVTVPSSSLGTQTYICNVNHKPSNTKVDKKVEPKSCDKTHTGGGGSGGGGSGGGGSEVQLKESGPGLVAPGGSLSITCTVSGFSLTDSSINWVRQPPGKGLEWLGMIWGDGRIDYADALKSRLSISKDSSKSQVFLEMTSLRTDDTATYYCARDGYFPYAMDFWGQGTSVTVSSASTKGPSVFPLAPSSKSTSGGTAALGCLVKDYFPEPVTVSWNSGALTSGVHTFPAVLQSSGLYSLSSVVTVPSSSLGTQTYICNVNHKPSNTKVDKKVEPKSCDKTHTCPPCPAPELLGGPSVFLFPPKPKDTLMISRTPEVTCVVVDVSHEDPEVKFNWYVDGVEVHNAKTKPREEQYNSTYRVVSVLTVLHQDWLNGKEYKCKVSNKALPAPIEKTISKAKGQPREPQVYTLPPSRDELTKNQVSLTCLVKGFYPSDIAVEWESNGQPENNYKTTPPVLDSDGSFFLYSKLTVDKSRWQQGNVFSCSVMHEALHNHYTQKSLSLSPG
notes: also called sLC-PCL2-Tandem-IgG; sLC Tandem-IgG-PCL2
In the case of B3, the Kd [4] is reported as 1.05 pM, the koff [4] is reported as 0.000189 s⁻¹ and the kon [4] is reported as 1.79e+08 M⁻¹ s⁻¹. The Kd [5] was 1.33 pM, the koff [5] was 0.000249 s⁻¹ and the kon [5] was 1.87e+08 M⁻¹ s⁻¹.
